US20240025949A1, “Beta-Arrestin Effectors and Compositions and Methods of Use Thereof” (Trevena, Inc., priority 2021, published 2024)
Where no end group is shown, it is not given here.

B1: SEQ ID NO: 24 (Sar-Arg-Val-Tyr-Arg-His-Pro-Ala-OH) (peptide)
chain: RVYRHPA
modifications: N-terminal Sar; C-terminal acid
B2: SEQ ID NO: 31 (Me2G-Arg-Val-Tyr-Val-His-Pro-Ala-OH) (peptide)
chain: RVYVHPA
modifications: N-terminal Me2Gly; C-terminal acid
B3: SEQ ID NO: 28 (Sar-Arg-Val-Tyr-Tyr-His-Pro-D-Phe-OH) (peptide)
chain: RVYYHP
modifications: N-terminal Sar; C-terminal D-Phe
B4: SEQ ID NO: 37 (Cyclo(Phe-Val-Tyr-Ile-His-Pro-Phe-Val-Tyr-Ile-His-Pro-Phe-Val-Tyr-Ile-His-Pro)) (peptide)
chain: FVYIHPFVYIHPFVYIHP
modifications: cyclic
B5: SEQ ID NO: 15 (Sar-Arg-Val-Tyr-Tyr-His-Pro-Ile-NH2) (peptide)
chain: RVYYHPI
modifications: N-terminal Sar; C-terminal amide
B6: SEQ ID NO: 26 (Sar-Arg-Val-Tyr-Tyr-His-Pro-NH2) (peptide)
chain: RVYYHP
modifications: N-terminal Sar; C-terminal amide
B7: SEQ ID NO: 33 (NMAla-Arg-Val-Tyr-Val-His-Pro-Ala-OH) (peptide)
chain: ARVYVHPA
modifications: N-methyl residue; C-terminal acid
B8: SEQ ID NO: 36 (Cyclo(Arg-Val-Tyr-Ile-His-Pro-Arg-Val-Tyr-Ile-His-Pro-Arg-Val-Tyr-Ile-His-Pro)) (peptide)
chain: RVYIHPRVYIHPRVYIHP
modifications: cyclic
B9: SEQ ID NO: 22 (Sar-Arg-Val-Tyr-His-His-Pro-Ala-OH) (peptide)
chain: RVYHHPA
modifications: N-terminal Sar; C-terminal acid
B10: SEQ ID NO: 38 (Cyclo(Val-Tyr-Ile-His-Pro-Phe)) (peptide)
chain: VYIHPF
modifications: cyclic
B11: SEQ ID NO: 19 (Sar-Arg-Val-Tyr-Tyr-His-Pro-Ala-OH) (peptide)
chain: RVYYHPA
modifications: N-terminal Sar; C-terminal acid
B12: SEQ ID NO: 35 (Sar-Arg-Val-Tyr-Ile-His-Pro-NVA-OH) (peptide)
chain: RVYIHP
modifications: N-terminal Sar; C-terminal norvaline
B13: SEQ ID NO: 21 (Sar-Arg-Val-Tyr-Phe-His-Pro-Ala-OH) (peptide)
chain: RVYFHPA
modifications: N-terminal Sar; C-terminal acid
B14: SEQ ID NO: 20 (Sar-Arg-Val-Tyr-Glu-His-Pro-Ala-OH) (peptide)
chain: RVYEHPA
modifications: N-terminal Sar; C-terminal acid
B15: SEQ ID NO: 16 (Sar-Arg-Val-Tyr-Glu-His-Pro-Ile-OH) (peptide)
chain: RVYEHPI
modifications: N-terminal Sar; C-terminal acid
B16: SEQ ID NO: 57 (Asp-Arg-Val-Tyr-Tyr-His-Pro-NH2) (peptide)
chain: DRVYYHP-NH2
B17: SEQ ID NO: 34 (NMAla-Arg-Val-Tyr-Ile-His-Pro-Ala-OH) (peptide)
chain: ARVYIHPA
modifications: N-methyl residue; C-terminal acid
B18: SEQ ID NO: 23 (Sar-Arg-Val-Tyr-Lys-His-Pro-Ala-OH) (peptide)
chain: RVYKHPA
modifications: N-terminal Sar; C-terminal acid

Legend:
[1] = target: human angiotensin 2 type 1 receptor (human) (UniProt P30556); experiment: cell-based or functional assay
[2] = target: rat angiotensin 2 type 1 receptor (rat) (UniProt P25095); experiment: cell-based or functional assay
Sequence of rat angiotensin 2 type 1 receptor (rat) (P25095 whole entry): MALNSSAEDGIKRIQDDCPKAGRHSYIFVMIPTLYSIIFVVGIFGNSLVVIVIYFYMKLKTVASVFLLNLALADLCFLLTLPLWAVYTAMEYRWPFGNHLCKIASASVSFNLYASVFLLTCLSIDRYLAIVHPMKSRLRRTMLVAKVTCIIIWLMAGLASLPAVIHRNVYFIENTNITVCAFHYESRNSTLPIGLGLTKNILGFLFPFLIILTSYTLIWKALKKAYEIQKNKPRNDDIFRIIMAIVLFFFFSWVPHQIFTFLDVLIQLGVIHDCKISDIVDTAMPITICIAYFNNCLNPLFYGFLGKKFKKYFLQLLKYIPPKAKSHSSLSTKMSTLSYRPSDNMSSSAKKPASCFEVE

Sequence of human angiotensin 2 type 1 receptor (human) (P30556 whole entry): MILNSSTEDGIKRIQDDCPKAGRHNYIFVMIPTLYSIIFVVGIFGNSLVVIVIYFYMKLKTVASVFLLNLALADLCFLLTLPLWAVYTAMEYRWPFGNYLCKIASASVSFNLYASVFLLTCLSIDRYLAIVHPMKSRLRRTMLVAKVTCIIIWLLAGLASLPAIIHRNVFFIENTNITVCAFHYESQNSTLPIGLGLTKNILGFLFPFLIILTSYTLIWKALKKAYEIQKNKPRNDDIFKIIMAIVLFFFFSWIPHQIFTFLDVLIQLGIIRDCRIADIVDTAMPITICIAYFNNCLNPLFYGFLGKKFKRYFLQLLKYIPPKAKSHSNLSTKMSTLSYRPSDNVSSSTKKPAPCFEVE

Row | Molecule | IP One EC50 [1] | b-arrestin2 EC50 [1] | b-arrestin2 Max [1] | IP One EC50 [2] | b-arrestin2 EC50 [2] | b-arrestin2 Max [2] | IP One Max [2] | IP One Max [1]
1 | SEQ ID NO: 66 (N-Me-Glu-Arg-Val-Tyr-Phe-His-Pro-NH2) (peptide) | > 10000 nM | 6700 nM | 30.6% | > 10000 nM | 10000 nM | 58.5% |  | 
2 | B1 | > 10000 nM | 480 nM | 61.3% | 7.4 nM | 63 nM | 74.1% | 15.1% | 
3 | B2 | > 10000 nM | 100 nM | 58.1% | 13 nM | 37 nM | 75.9% | 6.2% | 
4 | B3 | > 10000 nM | 20 nM | 82.9% | 64 nM | 19 nM | 91.4% | 24.6% | 
5 | B4 | > 10000 nM | 1700 nM | 62.3% | 240 nM | 1900 nM | 60.7% | 14.7% | 
6 | B5 | 250 nM | 820 nM | 44.3% | 77 nM | 230 nM | 62.1% | 51.1% | 19.3%
7 | B6 | > 10000 nM | 75 nM | 51.9% | > 10000 nM | 38 nM | 77.3% |  | 
8 | B7 | > 10000 nM | 40 nM | 54.9% | > 10000 nM | 31 nM | 86.9% |  | 
9 | B8 | > 10000 nM | 1200 nM | 39.5% | 100 nM | 1900 nM | 32.8% | 19.2% | 
10 | B9 | > 10000 nM | 270 nM | 54.5% | 250 nM | 27 nM | 74.3% | 5.2% | 
11 | B10 | > 10000 nM | 680 nM | 43.1% | 920 nM | 2500 nM | 66.4% | 20.8% | 
12 | B11 | > 10000 nM | 31 nM | 67.9% | > 10000 nM | 18 nM | 91.2% |  | 
13 | B12 | 2.7 nM | 12 nM | 67.9% | 12 nM | 9.3 nM | 79.8% | 30.5% | 7.1%
14 | B13 | > 10000 nM | 33 nM | 64.4% | > 10000 nM | 13 nM | 82.7% |  | 
15 | B14 | > 10000 nM | > 10000 nM |  | > 10000 nM | 3600 nM | 86.6% |  | 
16 | B15 | > 10000 nM | 880 nM | 56.9% | 92 nM | 140 nM | 76.9% | 24.4% | 
17 | B16 | 3.6 nM | 430 nM | 42.1% | 330 nM | 450 nM | 64.4% | 35.3% | 10%
18 | B17 | > 10000 nM | 25 nM | 53% | > 10000 nM | 32 nM | 81.7% |  | 
19 | B18 | > 10000 nM | 44 nM | 61.2% | 11 nM | 39 nM | 84.9% | 10.3% | 
